US20140274782A1, “AFFINITY REAGENTS AND METHODS FOR DETECTION, PURIFICATION, AND PROTEOMIC ANALYSIS OF METHYLATED PROTEINS” (The Board of Trustees of the Leland Stanford Junior …, priority 2013, published 2014)

T1: G9a and GLP (Homo sapiens, UniProt Q96KQ7+Q9H9B1)
T1 sequence (Q96KQ7 2-1210 limits assumed): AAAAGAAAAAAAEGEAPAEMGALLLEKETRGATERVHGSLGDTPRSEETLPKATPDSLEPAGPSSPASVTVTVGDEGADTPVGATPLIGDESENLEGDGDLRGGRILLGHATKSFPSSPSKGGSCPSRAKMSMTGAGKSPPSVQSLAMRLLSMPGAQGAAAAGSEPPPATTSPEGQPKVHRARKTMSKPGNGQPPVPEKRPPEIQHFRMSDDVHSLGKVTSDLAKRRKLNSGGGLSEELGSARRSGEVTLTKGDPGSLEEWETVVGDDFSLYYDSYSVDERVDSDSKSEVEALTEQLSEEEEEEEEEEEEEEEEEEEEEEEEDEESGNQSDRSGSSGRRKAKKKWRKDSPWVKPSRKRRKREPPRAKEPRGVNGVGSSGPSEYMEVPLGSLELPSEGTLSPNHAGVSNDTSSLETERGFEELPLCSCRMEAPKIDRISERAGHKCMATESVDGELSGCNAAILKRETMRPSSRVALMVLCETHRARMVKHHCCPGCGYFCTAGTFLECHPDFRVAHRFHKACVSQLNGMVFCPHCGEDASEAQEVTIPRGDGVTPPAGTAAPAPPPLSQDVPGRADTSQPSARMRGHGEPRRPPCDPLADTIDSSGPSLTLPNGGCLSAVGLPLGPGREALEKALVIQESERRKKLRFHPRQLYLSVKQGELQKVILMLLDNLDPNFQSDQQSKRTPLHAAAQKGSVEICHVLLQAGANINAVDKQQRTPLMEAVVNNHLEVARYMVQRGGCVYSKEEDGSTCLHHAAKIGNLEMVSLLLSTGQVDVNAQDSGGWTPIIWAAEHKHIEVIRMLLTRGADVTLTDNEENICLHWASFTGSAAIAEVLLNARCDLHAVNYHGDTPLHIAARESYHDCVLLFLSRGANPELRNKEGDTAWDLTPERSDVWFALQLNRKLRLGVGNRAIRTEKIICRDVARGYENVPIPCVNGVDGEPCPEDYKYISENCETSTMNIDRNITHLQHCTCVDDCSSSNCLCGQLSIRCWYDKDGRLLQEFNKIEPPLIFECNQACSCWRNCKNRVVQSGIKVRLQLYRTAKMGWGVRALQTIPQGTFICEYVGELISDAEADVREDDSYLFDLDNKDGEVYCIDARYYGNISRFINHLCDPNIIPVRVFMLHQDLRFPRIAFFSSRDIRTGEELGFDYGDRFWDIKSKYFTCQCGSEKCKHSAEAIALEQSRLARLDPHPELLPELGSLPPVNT
T1 sequence (Q9H9B1 2-1298 limits assumed): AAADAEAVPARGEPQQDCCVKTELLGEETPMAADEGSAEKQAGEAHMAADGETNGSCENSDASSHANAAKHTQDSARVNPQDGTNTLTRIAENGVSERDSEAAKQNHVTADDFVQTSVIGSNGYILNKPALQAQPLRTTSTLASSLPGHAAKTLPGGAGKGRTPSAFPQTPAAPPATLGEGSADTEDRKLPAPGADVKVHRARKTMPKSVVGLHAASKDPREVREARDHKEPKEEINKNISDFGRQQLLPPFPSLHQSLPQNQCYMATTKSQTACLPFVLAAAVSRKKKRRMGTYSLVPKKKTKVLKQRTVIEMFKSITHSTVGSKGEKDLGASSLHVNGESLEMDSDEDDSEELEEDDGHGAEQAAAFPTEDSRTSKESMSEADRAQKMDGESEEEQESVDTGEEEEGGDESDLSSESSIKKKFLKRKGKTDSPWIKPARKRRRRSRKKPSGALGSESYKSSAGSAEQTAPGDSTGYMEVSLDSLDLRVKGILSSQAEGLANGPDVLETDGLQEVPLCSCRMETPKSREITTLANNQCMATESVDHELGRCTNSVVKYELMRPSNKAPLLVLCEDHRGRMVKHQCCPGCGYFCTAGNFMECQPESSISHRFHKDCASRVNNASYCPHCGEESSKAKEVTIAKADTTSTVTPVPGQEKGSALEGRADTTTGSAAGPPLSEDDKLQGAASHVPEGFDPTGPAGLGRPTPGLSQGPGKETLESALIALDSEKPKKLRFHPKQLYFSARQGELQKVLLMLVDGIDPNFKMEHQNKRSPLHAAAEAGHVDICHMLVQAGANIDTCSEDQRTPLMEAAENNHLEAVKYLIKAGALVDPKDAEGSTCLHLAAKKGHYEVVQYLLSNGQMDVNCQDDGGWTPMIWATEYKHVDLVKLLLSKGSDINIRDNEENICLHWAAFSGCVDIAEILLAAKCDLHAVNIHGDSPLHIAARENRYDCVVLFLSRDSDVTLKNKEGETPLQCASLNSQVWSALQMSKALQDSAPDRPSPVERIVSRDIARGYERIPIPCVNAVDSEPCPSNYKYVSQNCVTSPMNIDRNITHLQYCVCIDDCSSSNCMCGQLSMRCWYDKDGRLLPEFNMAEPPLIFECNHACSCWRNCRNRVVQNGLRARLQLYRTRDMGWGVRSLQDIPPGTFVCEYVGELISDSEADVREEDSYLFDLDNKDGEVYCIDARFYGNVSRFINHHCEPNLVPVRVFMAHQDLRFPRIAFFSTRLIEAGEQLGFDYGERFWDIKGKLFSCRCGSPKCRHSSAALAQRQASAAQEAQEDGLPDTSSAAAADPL

B1: ADAR (protein, UniProt P55265 1-1226, looked up)
Double-stranded RNA-specific …: MNPRQGYSLSGYYTHPFQGYEHRQLRYQQPGPGSSPSSFLLKQIEFLKGQLPEAPVIGKQTPSLPPSLPGLRPRFPVLLASSTRGRQVDIRGVPRGVHLRSQGLQRGFQHPSPRGRSLPQRGVDCLSSHFQELSIYQDQEQRILKFLEELGEGKATTAHDLSGKLGTPKKEINRVLYSLAKKGKLQKEAGTPPLWKIAVSTQAWNQHSGVVRPDGHSQGAPNSDPSLEPEDRNSTSVSEDLLEPFIAVSAQAWNQHSGVVRPDSHSQGSPNSDPGLEPEDSNSTSALEDPLEFLDMAEIKEKICDYLFNVSDSSALNLAKNIGLTKARDINAVLIDMERQGDVYRQGTTPPIWHLTDKKRERMQIKRNTNSVPETAPAAIPETKRNAEFLTCNIPTSNASNNMVTTEKVENGQEPVIKLENRQEARPEPARLKPPVHYNGPSKAGYVDFENGQWATDDIPDDLNSIRAAPGEFRAIMEMPSFYSHGLPRCSPYKKLTECQLKNPISGLLEYAQFASQTCEFNMIEQSGPPHEPRFKFQVVINGREFPPAEAGSKKVAKQDAAMKAMTILLEEAKAKDSGKSEESSHYSTEKESEKTAESQTPTPSATSFFSGKSPVTTLLECMHKLGNSCEFRLLSKEGPAHEPKFQYCVAVGAQTFPSVSAPSKKVAKQMAAEEAMKALHGEATNSMASDNQPEGMISESLDNLESMMPNKVRKIGELVRYLNTNPVGGLLEYARSHGFAAEFKLVDQSGPPHEPKFVYQAKVGGRWFPAVCAHSKKQGKQEAADAALRVLIGENEKAERMGFTEVTPVTGASLRRTMLLLSRSPEAQPKTLPLTGSTFHDQIAMLSHRCFNTLTNSFQPSLLGRKILAAIIMKKDSEDMGVVVSLGTGNRCVKGDSLSLKGETVNDCHAEIISRRGFIRFLYSELMKYNSQTAKDSIFEPAKGGEKLQIKKTVSFHLYISTAPCGDGALFDKSCSDRAMESTESRHYPVFENPKQGKLRTKVENGEGTIPVESSDIVPTWDGIRLGERLRTMSCSDKILRWNVLGLQGALLTHFLQPIYLKSVTLGYLFSQGHLTRAICCRVTRDGSAFEDGLRHPFIVNHPKVGRVSIYDSKRQSGKTKETSVNWCLADGYDLEILDGTRGTVDGPRNELSRVSKKNIFLLFKKLCSFRYRRDLLRLSYGEAKKAARDYETAKNYFKKGLKDMGYGNWISKPQEEKNFYLCPV
B2: HNRNPUL1 (protein, UniProt Q9BUJ2 1-856, looked up)
Heterogeneous nuclear …: MDVRRLKVNELREELQRRGLDTRGLKAELAERLQAALEAEEPDDERELDADDEPGRPGHINEEVETEGGSELEGTAQPPPPGLQPHAEPGGYSGPDGHYAMDNITRQNQFYDTQVIKQENESGYERRPLEMEQQQAYRPEMKTEMKQGAPTSFLPPEASQLKPDRQQFQSRKRPYEENRGRGYFEHREDRRGRSPQPPAEEDEDDFDDTLVAIDTYNCDLHFKVARDRSSGYPLTIEGFAYLWSGARASYGVRRGRVCFEMKINEEISVKHLPSTEPDPHVVRIGWSLDSCSTQLGEEPFSYGYGGTGKKSTNSRFENYGDKFAENDVIGCFADFECGNDVELSFTKNGKWMGIAFRIQKEALGGQALYPHVLVKNCAVEFNFGQRAEPYCSVLPGFTFIQHLPLSERIRGTVGPKSKAECEILMMVGLPAAGKTTWAIKHAASNPSKKYNILGTNAIMDKMRVMGLRRQRNYAGRWDVLIQQATQCLNRLIQIAARKKRNYILDQTNVYGSAQRRKMRPFEGFQRKAIVICPTDEDLKDRTIKRTDEEGKDVPDHAVLEMKANFTLPDVGDFLDEVLFIELQREEADKLVRQYNEEGRKAGPPPEKRFDNRGGGGFRGRGGGGGFQRYENRGPPGGNRGGFQNRGGGSGGGGNYRGGFNRSGGGGYSQNRWGNNNRDNNNSNNRGSYNRAPQQQPPPQQPPPPQPPPQQPPPPPSYSPARNPPGASTYNKNSNIPGSSANTSTPTVSSYSPPQPSYSQPPYNQGGYSQGYTAPPPPPPPPPAYNYGSYGGYNPAPYTPPPPPTAQTYPQPSYNQYQQYAQQWNQYYQNQGQWPPYYGNYDYGSYSGNTQGGTSTQ
B3: LIG3 (protein, UniProt P49916 43-1009, looked up)
DNA ligase 3: LLHGHPLFLRRKPVLSFQGSHLRSRATYLVFLPGLHVGLCSGPCEMAEQRFCVDYAKRGTAGCKKCKEKIVKGVCRIGKVVPNPFSESGGDMKEWYHIKCMFEKLERARATTKKIEDLTELEGWEELEDNEKEQITQHIADLSSKAAGTPKKKAVVQAKLTTTGQVTSPVKGASFVTSTNPRKFSGFSAKPNNSGEAPSSPTPKRSLSSSKCDPRHKDCLLREFRKLCAMVADNPSYNTKTQIIQDFLRKGSAGDGFHGDVYLTVKLLLPGVIKTVYNLNDKQIVKLFSRIFNCNPDDMARDLEQGDVSETIRVFFEQSKSFPPAAKSLLTIQEVDEFLLRLSKLTKEDEQQQALQDIASRCTANDLKCIIRLIKHDLKMNSGAKHVLDALDPNAYEAFKASRNLQDVVERVLHNAQEVEKEPGQRRALSVQASLMTPVQPMLAEACKSVEYAMKKCPNGMFSEIKYDGERVQVHKNGDHFSYFSRSLKPVLPHKVAHFKDYIPQAFPGGHSMILDSEVLLIDNKTGKPLPFGTLGVHKKAAFQDANVCLFVFDCIYFNDVSLMDRPLCERRKFLHDNMVEIPNRIMFSEMKRVTKALDLADMITRVIQEGLEGLVLKDVKGTYEPGKRHWLKVKKDYLNEGAMADTADLVVLGAFYGQGSKGGMMSIFLMGCYDPGSQKWCTVTKCAGGHDDATLARLQNELDMVKISKDPSKIPSWLKVNKIYYPDFIVPDPKKAAVWEITGAEFSKSEAHTADGISIRFPRCTRIRDDKDWKSATNLPQLKELYQLSKEKADFTVVAGDEGSSTTGGSSEENKGPSGSAVSRKAPSKPSASTKKAEGKLSNSNSKDGNMQTAKPSAMKVGEKLATKSSPVKVGEKRKAADETLCQTKVLLDIFTGVRLYLPPSTPDFSRLRRYFVAFDGDLVQEFDMTSATHVLGSRDKNPAAQQVSPEWIWACIRKRRLVAPC
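Wherever 3xMBT/D355N UNC Heavy is given: proteins quantified with MaxQuant, requiring at least two unique peptides and quantification in both label directions, normalized to the mean of proteins from a digested loading control.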
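Wherever 3xMBT/D355N UNC Light is given: proteins quantified with MaxQuant, requiring at least two unique peptides and quantification in both label directions, normalized to the mean of proteins from a digested loading control.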
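Wherever Relative to UNC0638 Average is given: mass spectrometry (Q-Exactive) SILAC quantitation, DMSO/UNC0638 ratio computed after subtracting 3×MBTD355N mutant pull-down background, only proteins with at least twofold 3×MBT over mutant signal considered.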
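Wherever Relative to UNC0638 UNC Heavy is given: mass spectrometry (Q-Exactive) SILAC quantitation, DMSO/UNC0638 ratio computed after subtracting 3×MBTD355N mutant pull-down background, only proteins with at least twofold 3×MBT over mutant signal considered.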
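Wherever Relative to UNC0638 UNC Light is given: mass spectrometry (Q-Exactive) SILAC quantitation, DMSO/UNC0638 ratio computed after subtracting 3×MBTD355N mutant pull-down background, only proteins with at least twofold 3×MBT over mutant signal considered.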

These molecules were tested against T1, G9a and GLP (assay: Triple SILAC pull-down after UNC0638 treatment of 293T cells, DMSO/UNC0638 ratio of protein captured by 3×MBT). Conditions: SILAC ratio DMSO/UNC0638 of protein pulled down with 3xMBT; UNC0638 in heavy SILAC media.
Type: cell-based
Design: endogenous in cells; host or cells: HEK 293T
B1 was tested, and the “Relative to UNC0638 UNC Heavy” value was 0.37 log base 2. With B2 the “Relative to UNC0638 UNC Heavy” value was −0.17 log base 2. In the case of B3, the “Relative to UNC0638 UNC Heavy” value is reported as 0.26 log base 2.

Same assay, conditions: SILAC ratio DMSO/UNC0638 of protein pulled down with 3xMBT; UNC0638 in light SILAC media
For B1, the “Relative to UNC0638 UNC Light” value was 0.07 log base 2. With B2 the “Relative to UNC0638 UNC Light” value was 0.61 log base 2. In the case of B3, the “Relative to UNC0638 UNC Light” value is reported as 0.18 log base 2.

Same assay, conditions: average of UNC Light and UNC Heavy experiments
With B1 the “Relative to UNC0638 Average” value was 0.22 log base 2. In the case of B2, the “Relative to UNC0638 Average” value is reported as 0.22 log base 2. In the case of B3, the “Relative to UNC0638 Average” value is reported as 0.22 log base 2.

The molecules below were run on 3×MBT domain of L3MBTL1 (assay: Triple SILAC pull-down, 3xMBT/3xMBTD355N ratio (cytoplasmic, nuclear and chromatin fractions of 293T cells)). Conditions: SILAC ratio, pull-down 3xMBT vs 3xMBTD355N; experiment with UNC0638 in heavy SILAC media.
Type: binding, human
In the case of B1, the “3xMBT/D355N UNC Heavy” value is reported as 2.00 log base 2. B2 was tested, and the “3xMBT/D355N UNC Heavy” value was 2.97 log base 2. For B3, the “3xMBT/D355N UNC Heavy” value was 2.43 log base 2.

Same assay, conditions: SILAC ratio, pull-down 3xMBT vs 3xMBTD355N; experiment with UNC0638 in light SILAC media
For B1, the “3xMBT/D355N UNC Light” value was 2.47 log base 2. In the case of B2, the “3xMBT/D355N UNC Light” value is reported as 3.07 log base 2. B3 was tested, and the “3xMBT/D355N UNC Light” value was 2.16 log base 2.
